Reference: patent US9603922B2, “Modulation of NKT cell activity with antigen-loaded CD1d molecules” (VACCINEX, INC., priority 2007, dated 2017)

B1: αGalCer/sCD1d: soluble monomeric mouse β2m-CD1d, His-tagged, loaded with αGalCer (protein)
chain: IQKTPQIQVYSRHPPENGKPNILNCYVTQFHPPHIEIQMLKNGKKIPKVEMSDMSFSKDWSFYILAHTEFTPTETDTYACRVKHASMAEPKTVYWDRDMGGGGSGGSGSGGGSEAQQKNYTFRCLQMSSFANRSWSRTDSVVWLGDLQTHRWSNDSATISFTKPWSQGKLSNQQWEKLQHMFQVYRVSFTRDIQELVKMMSPKEDYPIEIQLSAGCEMYPGNASESFLHVAFQGKYVVRFWGTSWQTVPGAPSWLDLPIKVLNADQGTSATVQMLLNDTCPLFVRGLLEAGKSDLEKQEKPVAWLSSVPSSADGHRQLVCHVSGFYPKPVWVMWMRGDQEQQGTHRGDFLPNADETWYLQATLDVEAGEEAGLACRVKHSSLGGQDIILYWSSGSGGHHHHHH

Legend:
[1] = test system: B16-HER2 melanoma cells; assay: Systemic treatment of B16-HER2 lung metastases; format: in vivo, mouse; details: 5 i.v. injections starting 48 hours after tumor graft
Method: FIG. 6: In vivo anti tumor activity—Systemic Treatment. a Mice were grafted i.v. with 700.000 B16-HER2 cells and i.v. treatment was started 48 hours later. Mice were injected i.v. 5 times every 2 to 3 days with PBS (control), αGalCer (0.4 μg), αGalCer/sCD1d (sCD1d, 25 μg), or αGalCer/CD1d-anti-HER2 fusion (Fusion, 40 μg). Lung metastases were analysed after 3 weeks by the ImageJ k-means clustering program and expressed as percent metastatic surface over total lung surface. […] Mice were injected i.v. with 700,000 B16-HER2 cells and treatment with PBS (Control), αGalCer, or αGalCer/CD1d-anti-HER2 fusion protein (Fusion) was started 6 days after graft. Mice were treated 3× i.v. every 2-3 days and lung metastases were analyzed after 3 weeks as described above.
Quantification of lung metastasis. Metastatic nodule surface area was measured on 2560×1920 pixels photographs of the whole organs, taken on an Zeiss STEMI SV11 dissection microscope (Carl Zeiss, Jena, Germany) equipped with a PROGRES-C10plus Color Camera (Jenoptik, Jena, Germany). Each image was analyzed with the ImageJ program (rsb.info.nih.gov/ij/) using a k-means clustering algorithm (plugin available on ij-plugins.sourceforge.net). […] The area of the sum of selected color segments was expressed as percentage of the area occupied by the lungs. Both sides of the lung were analyzed. […]

[2] = test system: H-2Kb/OVA specific CD8 T cells; assay: Adjuvant effect on H-2Kb/OVA specific CD8 T cells upon ovalbumin immunization; format: in vivo, mouse; details: for Frequency of Kb/OVA specific CTLs in the spleens, of total CD8: after OVA peptide boost, 5 days in vitro culture without further stimulation; for Frequency of specific T cells: after boost and in vitro re-stimulation with same stimuli; for H-2Kb/OVA257-264 tetramer CD8 double positive T cells after priming: priming with 200 μg ovalbumin plus adjuvant
Method: FIG. 8: αGalCer loaded sCD1d acts as a strong adjuvant for the expansion of antigen-specific T cells upon active immunization. a kinetics of expansion of H-2K^b/OVA specific CTLs. Mice were primed with 200 μg ovalbumin either as such (i.v.) or with MONTANIDE™ adjuvant (3:7 ratio, s.c.) or with 1 μg αGalCer or 20 μg αGalCer/sCD1d (i.v.). Mice were bled every 5-7 days and PBMC were stained with H-2K^b/oVA tetramer+anti-CD8. Results were expressed as tetramer+ and CD8+ […] as a percentage of total CD8+ T cells. Mice were boosted with OVA peptide (20 μg) on day 22 employing the same adjuvants and route of injection as for primary immunization. b Ten days later, mice were sacrificed and splenocytes were cultured another five days either with no stimuli or with the same stimuli and adjuvants as for the in vivo boost. Frequency of OVA specific T cells was measured as in a. c The presence of mature DC in the same cultures as in b was analyzed by surface staining with anti CD11c and anti CD40 antibodies.
Together with active OVA immunization: An adjuvant effect has previously been attributed to free αGalCer and its potential use in vaccination has been proposed (Silk, J. D., et al. J Clin Invest 114:1800-1811 (2004)). […] In this context, the adjuvant effect on the expansion of antigen-specific T cells in the model of C57 BL/6 mice immunized with ovalbumin was investigated (Hermans, I. F., et al. J Immunol 171:5140-5147 (2003)). […] Furthermore, after boosting these same mice with OVA peptide in the same adjuvants in vivo and then 5 days in vitro culture without further stimulation, the frequency of K^b/OVA specific CTLs in the spleens reached up to 45% of total CD8 in mice that received a boost of OVA peptide with αGalCer/sCD1d, whereas the frequency was 12% in mice boosted with peptide and αGalCer alone (FIG. 8b). A further increase could be obtained by in vitro re-stimulation with the same respective stimuli and the frequency of specific T cells reached close to 70% in both αGalCer and αGalCer/sCD1d-treated mice (FIG. 8b).

[3] = test system: splenocytes, CD3+ T cells; assay: Conventional T cells (CD3+) in splenocyte cultures of treated mice; format: cell-based, mouse; details: for Conventional T cell population of CD3+ cells, in words: in vitro stimulation of splenocyte cultures; for Percentage of CD3+ cells of total spleen cells: in vitro stimulation, 7% without stimulation
Source text: Cells were stained with anti NK1.1-PE and anti CD3-FITC and analysed by flow cytometry. NK cells are reported as NK1.1 positive/CD3 negative population. b c Induction of DC maturation and T cell proliferation by αGalCer/sCD1d activated NKT cells in vivo. Splenocytes were isolated after five treatments i.v. with either PBS (control), αGalCer, or αGalCer/sCD1d and cultured for 4 days with GM-CSF and then 3 more days with either PBS (control, white bars), αGalCer (grey bars), or αGalCer/sCD1d (sCD1d, black bars). Cells were then stained with anti CD11c-FITC and biotinylated anti CD40 and Streptavidin-PE to detect double positive mature DCs (c), or with anti NK1.1-PE and anti CD3-FITC to detect CD3 single positive T cells (d) by flow cytometry.
In absence of a specific antigen: Several reports have described the capacity of iNKT cells to transactivate NK, DC and T cells upon activation with free αGalCer or αGalCer-pulsed dendritic cells (Nieda, M., et al. Blood 103:383-389 (2004); Hermans, I. F., et al. J Immunol 171:5140-5147 (2003); Smyth, M. J., et al. J Exp Med 201:1973-1985 (2005)). […] Regarding NK cells, their frequency indeed increased after a single injection of free αGalCer or of αGalCer/sCD1d with or without anti HER2, as shown by the increase of the NK1.1^+ CD3^− cell population (FIG. 7a). Markers for DC maturation were also analyzed after 5 days in vitro culture of splenocytes isolated at the end of a systemic treatment, as described in Example 1. […] From 7% of total spleen cells without stimulation, percentage of CD3^+ cells increased to 17, 27 and 30%, respectively in naïve, αGalCer and αGalCer/sCD1d treated mice.

[4] = test system: B16 wild type cells; assay: Precoating experiment, lung metastases of B16 wild type cells; format: in vivo, mouse; details: cells pre-incubated with agent, injected i.v. into naïve mice
Method: FIG. 5: Precoating experiment.
Quantification of lung metastasis. Metastatic nodule surface area was measured on 2560×1920 pixels photographs of the whole organs, taken on an Zeiss STEMI SV11 dissection microscope (Carl Zeiss, Jena, Germany) equipped with a PROGRES-C10plus Color Camera (Jenoptik, Jena, Germany). Each image was analyzed with the ImageJ program (rsb.info.nih.gov/ij/) using a k-means clustering algorithm (plugin available on ij-plugins.sourceforge.net). Images were segmented into 9 segments cluster tolerance 1×10−4, randomization seed: 48) and the appropriate segments were selected based on the color of the metastasis reaching the surface of the organ. The area of the sum of selected color segments was expressed as percentage of the area occupied by the lungs. Both sides of the lung were analyzed. This method takes into account both the number and the size of the tumor nodules. Since nodules are often heterogenous the percentage of metastatic lung surface area is a more sensitive measure of tumor growth than just counting tumor nodules.
This affect may be caused by a transient association of the αGalCer with the tumor cell surface, or by transient uptake of the free αGalCer.

| Molecule | Anti tumor effect in words [1] | Frequency of Kb/OVA specific CTLs in the spleens, of total CD8 [2] | Frequency of specific T cells [2] [%] | H-2Kb/OVA257-264 tetramer CD8 double positive T cells after priming [2] | Conventional T cell population of CD3+ cells, in words [3] | Lung metastases of precoated B16 wild type cells [4] | Percentage of CD3+ cells of total spleen cells ([3]; splenocytes of naïve mice) [%] | Percentage of CD3+ cells of total spleen cells ([3]; splenocytes of αGalCer treated mice) [%] | Percentage of CD3+ cells of total spleen cells ([3]; splenocytes of αGalCer/sCD1d treated mice) [%] |
| --- | --- | --- | --- | --- | --- | --- | --- | --- | --- |
| CCCCCCCCCCCCCCCCCCCCCCCCCC(=O)N[C@@H](CO[C@H]1O[C@H](CO)[C@H](O)[C@H](O)[C@H]1O)[C@H](O)[C@H](O)CCCCCCCCCCCCCC [αGalCer, α-galactosylceramide, reference compound] | no significant anti tumor effect | 12% | ~70 | no H-2K^b/OVA257-264 tetramer CD8 double positive T cells could be detected | no significant effect | completely inhibited tumor development |  |  |  |
| B1 | anti tumor activity which was very variable from mouse to mouse | up to 45% | ~70 | could be detected | significantly increased | not able to block tumor growth | 17 | 27 | 30 |
